What was measured:
[1] = molecular target: GM130-NLS phospho-S25 (synthetic peptide with a phosphate moiety on Ser-25 of GM130, a.a. 13-40) (human); assay: ITC; MicroCal iTC200, 25 °C, 20 mM HEPES pH 7.4, 1 mM DTT, with either 50 or 200 mM NaCl (which one is shown only in the figures); one-sites binding model
[2] = molecular target: GST-GM130-S25D (a.a. 1-85) (human); assay: pull-down; GST-GM130 (or GST-IBB) and the recombinant partner at 1:1 molar ratio on glutathione sepharose beads, wash with 150 mM NaCl, elution with 50 mM reduced glutathione, SDS-PAGE, Coomassie blue
[3] = molecular target: GST-GM130-S25D (a.a. 1-85) (human); assay: pull-down; competition: p115-CTD with GST-GM130-WT or GST-GM130-S25D and increasing concentrations of Importin-α FL (up to 40 μM); GST beads, SDS-PAGE, Coomassie blue, band intensities normalised by GST-GM130
[4] = molecular target: GST-GM130-WT (a.a. 1-85) (human); assay: as above
[5] = molecular target: GST-GM130-S25D (a.a. 1-85) (human); assay: pull-down; 5 µM GST-GM130 with HEK293T cell lysate (RIPA buffer) and glutathione sepharose beads, washes with 150 mM NaCl, Western blot for Importin-α and Importin-β
[6] = molecular target: GM130-NLS WT peptide (human); assay: ITC; MicroCal iTC200, 25 °C, 20 mM HEPES pH 7.4, 1 mM DTT, with either 50 or 200 mM NaCl (which one is shown only in the figures); one-sites binding model

Chain of Importin-β, recombinant, non-tagged (Q14974 whole entry): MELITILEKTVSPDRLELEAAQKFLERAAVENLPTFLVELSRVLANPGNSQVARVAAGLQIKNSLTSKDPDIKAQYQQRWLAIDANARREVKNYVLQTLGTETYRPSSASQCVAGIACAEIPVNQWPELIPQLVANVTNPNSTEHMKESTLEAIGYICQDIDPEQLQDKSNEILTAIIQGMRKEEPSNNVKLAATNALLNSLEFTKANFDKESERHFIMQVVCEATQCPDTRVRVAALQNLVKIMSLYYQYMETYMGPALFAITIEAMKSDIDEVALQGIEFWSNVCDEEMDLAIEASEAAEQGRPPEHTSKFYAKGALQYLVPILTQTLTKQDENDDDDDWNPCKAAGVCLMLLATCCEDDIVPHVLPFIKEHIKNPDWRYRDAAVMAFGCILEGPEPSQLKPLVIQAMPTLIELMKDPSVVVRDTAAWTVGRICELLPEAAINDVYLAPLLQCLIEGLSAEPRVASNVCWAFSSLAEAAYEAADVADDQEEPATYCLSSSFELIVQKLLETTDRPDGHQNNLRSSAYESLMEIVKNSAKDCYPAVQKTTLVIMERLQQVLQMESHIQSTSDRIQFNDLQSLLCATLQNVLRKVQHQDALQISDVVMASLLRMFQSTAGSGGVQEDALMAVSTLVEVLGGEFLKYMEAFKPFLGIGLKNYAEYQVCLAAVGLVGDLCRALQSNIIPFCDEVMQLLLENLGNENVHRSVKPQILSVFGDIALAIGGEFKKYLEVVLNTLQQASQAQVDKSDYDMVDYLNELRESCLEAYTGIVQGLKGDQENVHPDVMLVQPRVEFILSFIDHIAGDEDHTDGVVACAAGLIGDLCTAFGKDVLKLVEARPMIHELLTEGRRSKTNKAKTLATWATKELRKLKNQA

For “Importin-α FL (full-length Importin-α), recombinant (from UniProt P52292 1-529) (natural protein)”, the fold lower dissociation constant than GM130-NLS WT [1] was 3.3 fold, the percent of Importin-α FL pulled down relative to Importin-α(ΔIBB) [2] was 50% and the fold Importin-α FL pulldown against wild-type GM130 (40 μM Importin-α FL) [3] was 2 fold. For the same substance, the percent p115-CTD remaining on GM130 with 40 μM Importin-α FL [3] was 20% and the percent p115-CTD remaining on GM130 with 40 μM Importin-α FL [4] was 38%.

“Importin-α(ΔIBB) (Importin-α lacking the IBB domain, a.a. 70-524) (from UniProt P52293 70-524) (domain or fragment)” was tested, and the Kd [1] was 126 nM.

“Importin-α, endogenous in HEK293T cells (from UniProt P52292 1-529) (natural protein)” gave a fold Importin-α pulldown against wild-type GST-GM130 [5] of 1.3 fold.

In the case of “Importin-β, recombinant, non-tagged (from UniProt Q14974 1-876) (natural protein)”, the Kd [6] is reported as 1200 nM and the fold lower binding constant than the wild-type GM130 peptide [1] is reported as > 1000 fold.

From article PMC6754406, “Ran pathway-independent regulation of mitotic Golgi disassembly by Importin-α” (Nature Communications, 2019)
